Target: Rpc31, endogenous in hmt1Δ yeast cells (hypomethylated) (S. cerevisiae (endogenous in yeast cells)) (UniProt P17890)
Assay: co-IP; α-Rpc31 antibody cross-linked to magnetic beads; yeast lysates at 10 mg/ml, 2 h at 4°C; three washes with PBS, 0.5% Triton X-100, 2.5 mM MgCl2; immunoblot; cells before and after treatment with CPZ for 1 h

UniProt P17890, sequence (P17890 whole entry, stated change not applied): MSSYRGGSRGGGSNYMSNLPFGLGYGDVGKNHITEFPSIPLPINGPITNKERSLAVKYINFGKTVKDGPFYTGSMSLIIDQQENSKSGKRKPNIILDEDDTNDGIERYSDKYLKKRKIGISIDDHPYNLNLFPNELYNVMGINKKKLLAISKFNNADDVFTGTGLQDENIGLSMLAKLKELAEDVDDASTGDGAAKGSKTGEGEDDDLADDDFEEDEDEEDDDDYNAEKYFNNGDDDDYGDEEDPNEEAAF

association relative to that in WT cells, after CPZ (% lower than in WT cells): 40
Substance: Myc-tagged Maf1-7SA (from UniProt P41910 1-395) (natural protein)

— PMC6549136
